Assay: yeast display, Sf9 membrane polyspecificity reagent, FACS + sequencing; frameworks hold sequencing errors
How it was run: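 Genes from sorted yeast were amplified by colony PCR, read by MiSeq 2 × 250 sequencing and filtered on CDR length. These cells carried a synthetic nanobody library in Saccharomyces cerevisiae BJ5465 and were sorted by FACS into low and high (top ~1%) gates on anti-HA and streptavidin fluorescence. Polyreactivity is labelled according to the gate of origin.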

| Sequence | polyreactivity (PSR sort gate) |
| --- | --- |
| QVQLVESGGGLGQAGGSLRLSCAASGSTFIDNAMGWYRQAPGKERELVAAINSSGGNTYYADSVKWRFTISRDNAKNTVYLQMNSLKPEDTAVYYCNAEFYVLYFYDYEYWGQGTQVTLSS | low polyreactivity |
| QVQLVESGGGLVQAGGSLRLSCAASGSIFHYYAMGWYRQAPGKERELVADITSGGSTNYADSVKGRFTISRDNAKNTVYVQMNSLKQEDTAVYYCNASFQSWLVRVPGDYWGQGTQVTVSS | low polyreactivity |
| QVQLVESGGGLVQAGGSLRLSCAASGRTFWNYAMGCYRQAPGKERELVAAISSSGGTTYYADSVKGRFTISRDNAKNTVYLQMNTLKPEDTAVYYCAATGVSKPQRSFGYWGQGTQVTVSS | low polyreactivity |
| QVQLVESGRGLVRAGGSLPFSCAASAGNFMRYAMGWYRQAPGKERELVAAITANGGSTYYADSVKGRFTISRDNAKNTVYLQMNSLKPEDTAVYYCNADTGVRSYRRDYWGQGSQVTVSS | low polyreactivity |
| QVQLVESGGGLVQAGGSLRLSCAASGRIVRNAMGWYRQAPGKERELVAAISRSGGSTYDADSVKGRFTISRDNAKNTVYLQMNSLKPEDTAVYYCAKRSTSQSLQVEYWGQGTQVTVSS | high polyreactivity |
| QVQLVESGGGLVQAGGSLRLSCAASGIIFRYYAMGLYRQAPGKERELVAAISQGGGSTYYADSVKGRFTISRDNAKYTVYLPMKTLKPEDTAVYYCNTGRRHGLTQGGDYWGQGTQVTVSS | high polyreactivity |
| QVQLVESGGGLVQAGGSLRLSCAASGITFNTYTMVWYTQAPGKERELVAAISGSSGRTYYADSVKGRFTISRDNAKNTVYLQMNSLNPEDTAVYYCAAYAVESYKYDYWGHGTQVTVSS | high polyreactivity |
| QLQLVESGGGLVQAGGSLRISCAASGSTFFLNAMGWYRQAPGKERELVAAITSGSGNTYYADSVKGRFTISRDNAKNTVYLQMNSLKPADSAVYYCNVTRFVYRPYGLDRDDYWGQGTQGTVSS | low polyreactivity |
| QVQLQESGGGLVQAGGSLRLSCAASGTITVLYKMGWFRLAPGKEREFVASINYGTSTYYADSVKGRFTVSRDSAKNTVYLQMNSLKPEDTAVYYCAAAYRWQDVYRYWGQGTQVTVSS | low polyreactivity |
| QVQLVESGGGLVQAGGSLRLSCAASGRTFDFYVMGWYRHAPGKERELVAAISSGGSTNYADSVKGRFTISRDNAKYTVYLQMNSLKPEDTAVYYCAADPSGDYWGQGTQVTVSS | low polyreactivity |
| QVQLVESGGGLVQAGGSLRLSCAASGSIFYSYAMGWYRRAPGKERELVARITSSTGRTYYADSVKGRFTISRDNAKNTVYLQMNSLKAEDTAVYYCNVVVKGAWDYYPYDYWGQGTQVTVSS | high polyreactivity |
| QVQLVESGGGLVQAGGSLRLSCAASGFIFVRNTRGWYRQAPGKERELVAAISSRGGRTYYADSVKGRFTISRDNAKNTVYLQMNSLKPEDTAVYYCAKAHSVNQRYDYWGQGTQVTVSS | high polyreactivity |
| QVQLVQSGGGLVQAGGSLRLSCAASGFIFDTYTMGWYRQAPGKERQLVAAISRSGASTYYADSVKGRFTISRDNAKNTVYLQMNSLKPEDTAVYYCATVYYPSYRGGYDYWGQGTQVTVSS | high polyreactivity |
| QVQLVESGGGLVQAGGSLRLSCAASGSIFYKYMGWSRQAPGKERELVAAITWSGGSTYYADSVKGRFTISRDNAKNTVYLQMNSLKPEDPAVYYCAARDYTRYGYGYWGQGTQVTVSS | high polyreactivity |
| QVQLVESGGGLVQAGGSLRLSCAASGRIFRYNAMGWYRQAPGKERELVAAITSGTGTNYADSVKGRFTISRDNAKNTVYLQMNSLKPEDTAVYYCAAQPGQAWWSTDHDDYWGQGTQVTVSS | low polyreactivity |
| QVQLVESGGGLVQAGGSLRLSCAASGGTFSKNAMGWYRQAPGKEREFVAAISSTGGDTTYYADSVKGRFTISRDNAKNTVYLQMNSLKPEDTAVYYCNADYIFWPWYDYWGQGTQVTVSS | low polyreactivity |
| QVQLVQSGGGLVQAGGSLRLSCAASGLIFRYYTMGWYRQAPGKERELVAAISSGGSTRYADSVKGRFTISRDNAKNTVYLQMNSLKPEDTAVYYCAAKLYYYVQGRYNYWGQGTQVTVSS | high polyreactivity |
| QVQLVDSGGGLVQAGGSLRLSCAASGGTISQYAMGWYRQAPGKERELVARISRRGGSTSYADSVKGRFTISRDNAKNTVYLQMNSLKPEDTAVYYCNAVRFYGRWRWIMEYWGQGSQVTVSS | high polyreactivity |
| QVQLVESGGGLVQAGGSLRLSCAASGNTFGRYAMGWYRQAPGKERELVASIRGSSVRTFYADSVKGRFTISRDNAKNTVYLQMNSLKPEDTAVYYCAKRGYAYPSSYDSWGQGTQVTVSS | high polyreactivity |
| QVQLVESGGGLVQAGGSLRLSCAASGRIFGSYTMGWYRQAPGKERELVAAISWSGGNTYYADSVKGRFTISRDNAKNTVYLLMNSQKPEDTAVYYCNALYYRPPKWYGYWGQGTQVTVSS | high polyreactivity |
| QVQLVESGGGLVQAGGSLRLSCAASGSTFVYNDMGWNRQAPGKEREFVAAITYSGSTYYADSVKGRFTISRDNAKNTVYLQMNSLKPEDTAVYYCAAEYVWRFEYWGQGTQVTVSS | low polyreactivity |
| QVQLVESGGGLVQAGGSLRLTCAASGRTFPRYAMGWYRQAPGKERELVAAINSGGSTYYADSVKGRFTISRDNAKNSVYLQMNSLKPEDTAVYYCAAEGYTLGDGVYWIGPYDYWGQGTQLTVSS | high polyreactivity |

| Sequence | polyreactivity (PSR sort gate) |
| --- | --- |
| QVQLVESGGGLVQAGGSLRLSCAASGRNFGRYAMGCYRQAPGKERELVAAITGRGASTYYADSVKGRFTISRDNAKHTVYLQMNSLKPEDTAVYYCNAFRGAQGTDAYDWGQGTQVPVSS | low polyreactivity |
| QVQLVESGGGLVQAGGSLRLSCAASGITFNYNAMGWYRQAPGKERELVARITWSGTRTYYADSVKGRYTISRDNAKNTVYLQMNSLKPEDTAVYYCNADPYARYYWGQGTQVTVSS | high polyreactivity |
| QVQLVESGGGLVQAGGSLRLSCAASGFIFRYYAMGWYRQAPGKERELVAAISSRAGRTYADSVKGRFTISRDNAKYSVYLQMNSLKPEDTAVYYCAVRSKRKDVGYWGQGTQVTVSS | high polyreactivity |
| QVQLVESGGGLVQAGGSLRLSCAASGLTFGYYDMGRYRQAPGKERELVAAITSGGTTNYADSVKGRFTISRDNAKNTVYLQMNSQKPEDNAVYYCNADYYSRIVGVRIYDYWGQGTQVTVSS | low polyreactivity |
| QVQLVESGGGLVQSGGSLRLSCAASGSTFASNAMGWYRQAPGTEMELVAAISRSADSTYYADSVKGRFTISRDNAKNTVYLQMNSLKPEDTAVYYCAARHSRYRNPKYYYWGQGTQVTVSS | high polyreactivity |
| QVQLVDSGGGLVQAGGSLRLSCAASGRTFYFNAMGWYRQAPGKERELVAAITSSDSTYYADSVKGRFTISRDNAKNTVYLQMISLKPEDTAVYYCNADYFYWREMDYWGQGTQVTVSS | low polyreactivity |
| QVQLVESGGGLVQAGGSLRLICAASGRPFTYNMGWYRQAPGKERELVAANDLRRLCEGALHNFTRQCEEYRLFTDVQPETGRYPVYYCNADPAWIWYTFDYWGQGTQVTVSS | low polyreactivity |
| QVQLVESGGGLVQAGGSLRLSCAASGRTFFYNAMGWYRQAPGKERELVATITWTGDSTYADSVKGRFTISRDNAKNTVYLQMNSLKPEDTAVYYCAAGKPVILTGDYDYWGQGTQVTVSS | low polyreactivity |
| QVQLVESGGGLVQAGGSLRLSCAASGLTFRYYAMGWYIQAPGKERELVATITATDGSTYYADSVKGRFTISRDNAKNTVYLQMNSLKPEDTAVYYRAKTYTEYSVTRSGARMDYWGQGTQVTVSS | low polyreactivity |
| QVQLVESGGGLVQAGGSLRLSCAASGITFRWNAMGWYRPAPGKARELVAAITYRGGSTHYADSVKGRFTISRDNGKNSVYIQMNSLKPEDTAVYYCAVRRWPRYRWSDYWVQGTQVTVSS | low polyreactivity |
| QVQLVESGGGFVQAGGSLRFSCAAYGSTFNQYAMGWYRQAPGKEREFVASITFSGGRTYYADSVQGRFTLSRDNEQNTVYLQMNSLKTEDPAVSYCNAVGYTPRKPSKFDYRGQGTQVTVSS | low polyreactivity |
| QVKLVESGGGLDQAGGSLRLSCAASGTIFRKNAMGWYRQAPGKERELVAAMTGTGRTTYADSVKGRFTISRDNAKNTFYLQMNSLKPEDTAVYYCAADVNYYQHRLYYWGQGTQVTVSS | low polyreactivity |
| QVQLEESAGGLVQAGGSLRLSCAASGRTFRRYAMGWYRPAPGKERELVAVISSGGRTNYADSVKGRFTISRDNAKNTVYLQLNSLKPEDTAVYYCNAGPLYSGVYSGYFWGQGTQVTVSS | high polyreactivity |
| QVQLVESGGGLVQAGGSLRLSCAASGRTFGYYAMGWYRQAPGKEREFVAAISHSAGSTSYADSVKGRFTISRDNAKNTVYLQMNSLKPEDTAVYYCAADNPWYEMDYWGQGTQVTVSS | low polyreactivity |
| QVQLVESRGGLVQAGGSLRLSCAASGFTFRAYAMGWYREAPGKERELVAAISTGGGSTYYADSVKGRFTISRDNAKITVYFQMNSLKPEDTAVYYCNALPQRRYYYWGQGTHVTVSS | high polyreactivity |
| QVQLVESGGGLVQAGGSLRLSCAASGRIFPYYAMGWYRQAPGKERELVAAITQGGGRTYYADSVKGRFTISRDNAKNTVYLQMNSLKPEDTAVYYCAKRFTIRALLLRWADYDYWGQGTQVTVSS | low polyreactivity |
| QVQLVESGGGLVQAGGSLRLSCAASGFIFRGYAMGWYRQAPGKERELVAAISRRGGSTYYADSVKGRFTISRDNAKNTVYLQMNSLKPEDTAVYYCNADTTPQGNVRDGYWGQGTQVTVSS | high polyreactivity |
| QVQLVESGGGLVQAGGSLRLSCAASGSTLVLNAMGWYRQAPGKERELVAAITISGDTTYYADSVKGRFTISRDNAKNTVYLQMNSLKPEDTAVYYCAVDSFLVYSAVRPYDYWGQGTQVTVSS | low polyreactivity |
| QVQLVESGGGLFQAGGSLRLSCAASGRTFLYYTMGWYRQAPGKERELVAAITSGTSTNYADSVKGRFTISRDNAKNTVYLQMNSLKPEDTAVYYCNKRAARSLNGYPLYGYYYWGQGTQVTVSS | low polyreactivity |
| QVQLVESGGGLVQAGGSLRLSCAASGRTFRAYVMGWYRQAPGKERELVAAFTGDGGSTYYADSVKGRFTISRDNAKNTVYLQMNSLKPEDTAVYYCAAGYVTVYGYYEYWGQGTQVTVSS | high polyreactivity |
| QVQLVESGGGLVQAGGSLRLSCAASGGTFVHNAMGWYRQAPGKERELVAAISWSGGSTYYADSVKGRFTISRDNAKNTVYLQMNSLKPEDTAVYYCAADLPDYKDIFDSWGQGTQVTVSS | low polyreactivity |

Reference: the nanobody polyreactivity screen of Harvey et al. (2022)
